Tests used:
[1] = target: Nup98-type FG domain comprising 52 perfect 12-mer GLFG repeat units (prf.GLFG52x12); test: partitioning into an FG phase (confocal laser scanning microscopy); prf.GLFG52x12 domain phase-separated into FG particles; fluorescent species added, scanned 1 h later; 50 mM Tris-HCl pH 7.5, 150 or 250 mM NaCl, 0.5 mM IP6; signal in:out, or rim and centre normalised to wild type
[2] = target: Nup98-type FG domain comprising 52 perfect 12-mer GLFG repeat units (prf.GLFG52x12); test: FG phase partitioning assay
[3] = target: Nup98-type FG domain comprising 52 perfect 12-mer GLFG repeat units (prf.GLFG52x12); test: FG phase partitioning assay; remark: listed apart in the source
[4] = target: Nup98-type FG domain comprising 52 perfect 12-mer GLFG repeat units (prf.GLFG52x12); test: FG phase partitioning assay; remark: listed apart in the source
[5] = target: Nup98-type FG domain comprising 52 perfect 12-mer GLFG repeat units (prf.GLFG52x12); test: FG phase partitioning assay; remark: listed apart in the source
[6] = target: FG repeat domain of 669 residues with non-charged spacers and 36 FSFG motifs; test: FG phase partitioning assay
[7] = target: Nup98-type FG domain comprising 52 perfect 12-mer GLFG repeat units (prf.GLFG52x12); test: FG phase partitioning assay; remark: listed apart in the source
[8] = fluorescence intensity at rim of FG particles
[9] = fluorescence intensity in center of FG particles
[10] = signal in center of FG particles

## EGFP
[1]
  partition coefficient (in:out): < 0.1

## conical CLPs (capsid-like particles) of wild-type CA (CA-P1A), filled with sinGFP4a H87G
[2]; [8]
  response: 30000
[2]; [9]
  response: 30000
[2]; [10]
  percent of parent: 90%

## conical CLPs (capsid-like particles) of wild-type CA (CA-P1A), filled with sinGFP4a V86E; A88E; I91E; A92E
[2]; [8]
  response: 260
[2]; [9]
  response: 190
[3]; signal at rim of FG particles
  percent of parent: 1%
[3]; [10]
  percent of parent: 0.7%

## conical CLPs (capsid-like particles) of wild-type CA (CA-P1A), filled with sinGFP4a M96G
[2]; [8]
  response: 28000
[2]; [9]
  response: 30000
[2]; [10]
  percent of parent: 90%

## CLPs of CA G94D, filled with sinGFP4a (complex)
[1]
  partitioning, percent of the wild-type level (% of the wild-type level): 5

## 20-nm T1 pentamer-only capsid spheres (CA P1A+G60A+G61P), EGFP-labelled Q9E; A92E
[2]; [8]
  response: 5800
[2]; [9]
  response: 290
[2]; signal at rim of FG particles
  percent of parent: 31%
[2]; [10]
  percent of parent: 1.5%

## conical CLPs (capsid-like particles) of wild-type CA (CA-P1A), EGFP-labelled (complex)
[1]
  partition coefficient (in:out): 1000

## conical CLPs (capsid-like particles) of wild-type CA (CA-P1A), filled with sinGFP4a N57A; A92E; G94D
[2]; [8]
  response: 4300
[2]; [9]
  response: 660
[2]; signal at rim of FG particles
  percent of parent: 16%
[2]; [10]
  percent of parent: 2.5%

## conical CLPs (capsid-like particles) of wild-type CA (CA-P1A), filled with sinGFP4a N74D
[4]; [8]
  response: 30000
[4]; [9]
  response: 33000
[5]; signal at rim of FG particles
  percent of parent: 110%
[5]; [10]
  percent of parent: 110%

## conical CLPs (capsid-like particles) of wild-type CA (CA-P1A), filled with sinGFP4a A77V
[4]; [8]
  response: 27000
[4]; [9]
  response: 29000
[5]; [10]
  percent of parent: 94%

## 20-nm T1 pentamer-only capsid spheres (CA P1A+G60A+G61P), EGFP-labelled V86E; A88E; I91E; A92E
[2]; [8]
  response: 74
[2]; signal at rim of FG particles
  percent of parent: 0.4%
[2]; [10]
  percent of parent: 0.4%

## conical CLPs (capsid-like particles) of wild-type CA (CA-P1A), filled with sinGFP4a A92G
[2]; [8]
  response: 26000
[2]; [9]
  response: 32000
[2]; signal at rim of FG particles
  percent of parent: 90%
[2]; [10]
  percent of parent: 90%

## conical CLPs (capsid-like particles) of wild-type CA (CA-P1A), filled with sinGFP4a N57A; G94D
[2]; [8]
  response: 17000
[2]; [9]
  response: 1200
[2]; signal at rim of FG particles
  percent of parent: 63%
[2]; [10]
  percent of parent: 4.6%

## conical CLPs (capsid-like particles) of wild-type CA (CA-P1A), filled with sinGFP4a G116A
[4]; [8]
  response: 27000
[4]; [9]
  response: 32000

## conical CLPs (capsid-like particles) of wild-type CA (CA-P1A), filled with sinGFP4a V86G
[2]; [8]
  response: 27000
[2]; [9]
  response: 31000
[2]; signal at rim of FG particles
  percent of parent: 90%
[2]; [10]
  percent of parent: 90%

## 20-nm T1 pentamer-only capsid spheres (CA P1A+G60A+G61P), EGFP-labelled G89V
[6]; [8]
  response: 31000
[6]; [9]
  response: 34000
[6]; signal at rim of FG particles
  percent of parent: 160%
[6]; [10]
  percent of parent: 170%

## conical CLPs (capsid-like particles) of wild-type CA (CA-P1A), filled with sinGFP4a P123E
[7]; [8]
  response: 17000
[7]; [9]
  response: 7400
[2]; signal at rim of FG particles
  percent of parent: 80%

## conical CLPs (capsid-like particles) of wild-type CA (CA-P1A), filled with sinGFP4a E45A
[4]; [8]
  response: 29000
[4]; [9]
  response: 34000
[5]; signal at rim of FG particles
  percent of parent: 110%
[5]; [10]
  percent of parent: 110%

## CLPs of CA V86E, filled with sinGFP4a (complex)
[1]
  fold reduction of partitioning against wild type: > 10 fold

## CLPs of CA R132K, filled with sinGFP4a (complex)
[1]
  reduction in partitioning against wild type: 50%

## conical CLPs (capsid-like particles) of wild-type CA (CA-P1A), filled with sinGFP4a N57A
[4]; [8]
  response: 21000
[4]; [9]
  response: 1600
[5]; signal at rim of FG particles
  percent of parent: 80%
[2]; [8]
  response: 23000
[2]; [9]
  response: 1800
[2]; signal at rim of FG particles
  percent of parent: 85%
[2]; [10]
  percent of parent: 7%

## conical CLPs (capsid-like particles) of wild-type CA (CA-P1A), filled with sinGFP4a P90A
[4]; [8]
  response: 29000
[4]; [9]
  response: 32000
[5]; signal at rim of FG particles
  percent of parent: 110%

## conical CLPs (capsid-like particles) of wild-type CA (CA-P1A), filled with sinGFP4a N57A; H87Q; A92E; G94D
[2]; [8]
  response: 370
[2]; [9]
  response: 440
[2]; signal at rim of FG particles
  percent of parent: 1.4%
[2]; [10]
  percent of parent: 1.7%

## conical CLPs (capsid-like particles) of wild-type CA (CA-P1A), filled with sinGFP4a I91G
[2]; [8]
  response: 30000
[2]; [9]
  response: 33000

## CLPs of CA I91E, filled with sinGFP4a (complex)
[1]
  fold reduction of partitioning against wild type: > 10 fold

## conical CLPs (capsid-like particles) of wild-type CA (CA-P1A), filled with sinGFP4a H87Q; A92E; G94D
[2]; [8]
  response: 8200
[2]; [9]
  response: 670
[3]; [10]
  percent of parent: 2.6%

## conical CLPs (capsid-like particles) of wild-type CA (CA-P1A), filled with sinGFP4a K182R
[4]; [8]
  response: 28000
[4]; [9]
  response: 34000
[5]; [10]
  percent of parent: 110%

## 20-nm T1 pentamer-only capsid spheres (CA P1A+G60A+G61P), EGFP-labelled Q9E
[2]; [8]
  response: 15000
[2]; [9]
  response: 14000
[2]; signal at rim of FG particles
  percent of parent: 79%
[2]; [10]
  percent of parent: 74%

## CLPs of CA H87E, filled with sinGFP4a (complex)
[1]
  fold reduction of partitioning against wild type: 15 fold

## 20-nm T1 pentamer-only capsid spheres (CA P1A+G60A+G61P), EGFP-labelled A92E
[2]; [8]
  response: 11000
[2]; [9]
  response: 5300
[2]; signal at rim of FG particles
  percent of parent: 58%
[2]; [10]
  percent of parent: 28%

## conical CLPs (capsid-like particles) of wild-type CA (CA-P1A), filled with sinGFP4a Q9E; A92E
[2]; [8]
  response: 9700
[2]; [9]
  response: 660
[3]; signal at rim of FG particles
  percent of parent: 36%
[3]; [10]
  percent of parent: 2.5%

## conical CLPs (capsid-like particles) of wild-type CA (CA-P1A), filled with sinGFP4a R143A
[4]; [8]
  response: 28000
[4]; [9]
  response: 30000

## 20-nm T1 pentamer-only capsid spheres (CA P1A+G60A+G61P), EGFP-labelled N57A
[2]; [8]
  response: 8500
[2]; [9]
  response: 400
[2]; signal at rim of FG particles
  percent of parent: 45%
[2]; [10]
  percent of parent: 2.1%

## CLPs of CA H87Q, filled with sinGFP4a (complex)
[1]
  reduction in partitioning against wild type: 50%

## CLPs of CA M96E, filled with sinGFP4a (complex)
[1]
  fold reduction of partitioning against wild type: > 10 fold

## mCherry
[1]
  partition coefficient (in:out): < 0.1

## CLPs of CA A88E, filled with sinGFP4a (complex)
[1]
  fold reduction of partitioning against wild type: > 10 fold

## conical CLPs (capsid-like particles) of wild-type CA (CA-P1A), filled with sinGFP4a N57A; A92E
[2]; [8]
  response: 14000
[2]; [9]
  response: 1100
[2]; signal at rim of FG particles
  percent of parent: 52%
[2]; [10]
  percent of parent: 4.2%

## conical CLPs (capsid-like particles) of wild-type CA (CA-P1A), filled with sinGFP4a A88G
[2]; [8]
  response: 26000
[2]; [9]
  response: 30000
[2]; signal at rim of FG particles
  percent of parent: 90%
[2]; [10]
  percent of parent: 90%

## 20-nm T1 pentamer-only capsid spheres (CA P1A+G60A+G61P), EGFP-labelled H87Q; A92E; G94D
[2]; [8]
  response: 2300
[2]; [9]
  response: 190
[2]; signal at rim of FG particles
  percent of parent: 12%
[2]; [10]
  percent of parent: 1%

## CLPs of CA A92E, filled with sinGFP4a (complex)
[1]
  fold reduction of partitioning against wild type: > 10 fold
  partitioning, percent of the wild-type level (% of the wild-type level): 5

## 20-nm T1 pentamer-only capsid spheres (CA P1A+G60A+G61P), EGFP-labelled G94D
[2]; [8]
  response: 15000
[2]; [9]
  response: 9600
[2]; signal at rim of FG particles
  percent of parent: 79%

## conical CLPs (capsid-like particles) of wild-type CA (CA-P1A), filled with sinGFP4a L136M
[4]; [8]
  response: 28000
[4]; [9]
  response: 30000

## conical CLPs (capsid-like particles) of wild-type CA (CA-P1A), filled with sinGFP4a G89V
[4]; [8]
  response: 29000
[4]; [9]
  response: 30000
[5]; [10]
  percent of parent: 110%

## 20-nm T1 pentamer-only capsid spheres (CA P1A+G60A+G61P), EGFP-labelled P90A
[6]; [8]
  response: 45000
[6]; [9]
  response: 51000
[6]; signal at rim of FG particles
  percent of parent: 240%
[6]; [10]
  percent of parent: 260%

## 20-nm T1 pentamer-only capsid spheres (CA P1A+G60A+G61P), EGFP-labelled H87Q
[2]; [8]
  response: 15000
[2]; [9]
  response: 13000
[2]; signal at rim of FG particles
  percent of parent: 79%
[2]; [10]
  percent of parent: 68%
